Measurements published in patent publication US20260250322A1, “NEW PEPTIDES AS SELECTIVE IL-23 RECEPTOR INHIBITORS” (SANOFI, priority 2023, published 2026).
Numbered stars: 1 amine (or outer) side, 2 acyl side, 3 side chain; on linkers, the order of the positions; unused ones are H or OH. Bridge positions count the residues as written; N and C are the ends. Square brackets hold non-standard residues; d marks the D form. Peptide text beside a SMILES is read from it. Tyr(Me) = Yme = 4-methoxy-L-phenylalanine (O-methyl-tyrosine), COc1ccc(C[C@H](N[*:1])C(=O)[*:2])cc1; Trp(1-Me) = Cn1cc(C[C@H](N)C(=O)O)c2ccccc21; dAla(4-thiazolyl) = N[C@H](Cc1cscn1)C(=O)O; 1Nal = N[C@@H](Cc1cccc2ccccc12)C(=O)O; 2Nal = N[C@@H](Cc1ccc2ccccc2c1)C(=O)O; αMeL = CC(C)C[C@](C)(N)C(=O)O; Orn = NCCC[C@H](N)C(=O)O; Aib = CC(C)(N)C(=O)O

B1: peptide compound SEQ ID NO: 12 (peptide)
peptide: Ac-[dD]NTWQR[Tyr(Me)][2Nal][Aib]KNN-NH2
modifications: lactam 1-10
SMILES: COc1ccc(C[C@@H]2NC(=O)[C@H](CCCNC(=N)N)NC(=O)[C@H](CCC(N)=O)NC(=O)[C@H](Cc3c[nH]c4ccccc34)NC(=O)[C@H]([C@@H](C)O)NC(=O)[C@H](CC(N)=O)NC(=O)[C@H](NC(C)=O)CC(=O)NCCCC[C@@H](C(=O)N[C@@H](CC(N)=O)C(=O)N[C@@H](CC(N)=O)C(N)=O)NC(=O)C(C)(C)NC(=O)[C@H](Cc3ccc4ccccc4c3)NC2=O)cc1
B2: peptide compound SEQ ID NO: 10 (peptide)
peptide: Ac-[dK]NT[Trp(1-Me)]QR[Tyr(Me)][2Nal]K(Ac)DNN-NH2
modifications: lactam 1-10
SMILES: COc1ccc(C[C@@H]2NC(=O)[C@H](CCCNC(=N)N)NC(=O)[C@H](CCC(N)=O)NC(=O)[C@H](Cc3cn(C)c4ccccc34)NC(=O)[C@H]([C@@H](C)O)NC(=O)[C@H](CC(N)=O)NC(=O)[C@H](NC(C)=O)CCCCNC(=O)C[C@@H](C(=O)N[C@@H](CC(N)=O)C(=O)N[C@@H](CC(N)=O)C(N)=O)NC(=O)[C@H](CCCCNC(C)=O)NC(=O)[C@H](Cc3ccc4ccccc4c3)NC2=O)cc1
B3: peptide IL-23 receptor inhibitor SEQ. ID NO. 24 (peptide)
peptide: Ac-[dK]NT[Trp(1-Me)]QR[Tyr(Me)][2Nal][αMeL]DNN-NH2
modifications: lactam 1-10
SMILES: COc1ccc(C[C@@H]2NC(=O)[C@H](CCCNC(=N)N)NC(=O)[C@H](CCC(N)=O)NC(=O)[C@H](Cc3cn(C)c4ccccc34)NC(=O)[C@H]([C@@H](C)O)NC(=O)[C@H](CC(N)=O)NC(=O)[C@H](NC(C)=O)CCCCNC(=O)C[C@@H](C(=O)N[C@@H](CC(N)=O)C(=O)N[C@@H](CC(N)=O)C(N)=O)NC(=O)[C@](C)(CC(C)C)NC(=O)[C@H](Cc3ccc4ccccc4c3)NC2=O)cc1
B4: peptide compound SEQ ID NO: 20 (peptide)
peptide: Ac-[dK]NTWQV[Tyr(Me)][1Nal][Aib]DNN-NH2
modifications: lactam 1-10
SMILES: COc1ccc(C[C@@H]2NC(=O)[C@H](C(C)C)NC(=O)[C@H](CCC(N)=O)NC(=O)[C@H](Cc3c[nH]c4ccccc34)NC(=O)[C@H]([C@@H](C)O)NC(=O)[C@H](CC(N)=O)NC(=O)[C@H](NC(C)=O)CCCCNC(=O)C[C@@H](C(=O)N[C@@H](CC(N)=O)C(=O)N[C@@H](CC(N)=O)C(N)=O)NC(=O)C(C)(C)NC(=O)[C@H](Cc3cccc4ccccc34)NC2=O)cc1
B5: peptide compound SEQ ID NO: 23 (peptide)
peptide: Ac-[dK]NT[Trp(1-Me)]QR[Tyr(Me)][1Nal][αMeL]DNN-NH2
modifications: lactam 1-10
SMILES: COc1ccc(C[C@@H]2NC(=O)[C@H](CCCNC(=N)N)NC(=O)[C@H](CCC(N)=O)NC(=O)[C@H](Cc3cn(C)c4ccccc34)NC(=O)[C@H]([C@@H](C)O)NC(=O)[C@H](CC(N)=O)NC(=O)[C@H](NC(C)=O)CCCCNC(=O)C[C@@H](C(=O)N[C@@H](CC(N)=O)C(=O)N[C@@H](CC(N)=O)C(N)=O)NC(=O)[C@](C)(CC(C)C)NC(=O)[C@H](Cc3cccc4ccccc34)NC2=O)cc1
B6: peptide compound SEQ ID NO: 1 (peptide)
peptide: Ac-[dK]NTWQL[Tyr(Me)][2Nal][Aib]DNN-NH2
modifications: lactam 1-10
SMILES: COc1ccc(C[C@@H]2NC(=O)[C@H](CC(C)C)NC(=O)[C@H](CCC(N)=O)NC(=O)[C@H](Cc3c[nH]c4ccccc34)NC(=O)[C@H]([C@@H](C)O)NC(=O)[C@H](CC(N)=O)NC(=O)[C@H](NC(C)=O)CCCCNC(=O)C[C@@H](C(=O)N[C@@H](CC(N)=O)C(=O)N[C@@H](CC(N)=O)C(N)=O)NC(=O)C(C)(C)NC(=O)[C@H](Cc3ccc4ccccc4c3)NC2=O)cc1
B7: peptide compound SEQ ID NO: 2 (peptide)
peptide: Ac-[dK]NTWQA[Tyr(Me)][2Nal][Aib]DNN-NH2
modifications: lactam 1-10
SMILES: COc1ccc(C[C@@H]2NC(=O)[C@H](C)NC(=O)[C@H](CCC(N)=O)NC(=O)[C@H](Cc3c[nH]c4ccccc34)NC(=O)[C@H]([C@@H](C)O)NC(=O)[C@H](CC(N)=O)NC(=O)[C@H](NC(C)=O)CCCCNC(=O)C[C@@H](C(=O)N[C@@H](CC(N)=O)C(=O)N[C@@H](CC(N)=O)C(N)=O)NC(=O)C(C)(C)NC(=O)[C@H](Cc3ccc4ccccc4c3)NC2=O)cc1
B8: peptide compound SEQ ID NO: 15 (peptide)
peptide: Ac-[dK]NTWQR[Tyr(Me)][2Nal][Aib]DNN-NH2
modifications: lactam 1-10
SMILES: COc1ccc(C[C@@H]2NC(=O)[C@H](CCCNC(=N)N)NC(=O)[C@H](CCC(N)=O)NC(=O)[C@H](Cc3c[nH]c4ccccc34)NC(=O)[C@H]([C@@H](C)O)NC(=O)[C@H](CC(N)=O)NC(=O)[C@H](NC(C)=O)CCCCNC(=O)C[C@@H](C(=O)N[C@@H](CC(N)=O)C(=O)N[C@@H](CC(N)=O)C(N)=O)NC(=O)C(C)(C)NC(=O)[C@H](Cc3ccc4ccccc4c3)NC2=O)cc1
B9: peptide compound SEQ ID NO: 13 (peptide)
peptide: Ac-[dD]NTWQR[Tyr(Me)][2Nal][Aib][Orn]NN-NH2
modifications: lactam 1-10
SMILES: COc1ccc(C[C@@H]2NC(=O)[C@H](CCCNC(=N)N)NC(=O)[C@H](CCC(N)=O)NC(=O)[C@H](Cc3c[nH]c4ccccc34)NC(=O)[C@H]([C@@H](C)O)NC(=O)[C@H](CC(N)=O)NC(=O)[C@H](NC(C)=O)CC(=O)NCCC[C@@H](C(=O)N[C@@H](CC(N)=O)C(=O)N[C@@H](CC(N)=O)C(N)=O)NC(=O)C(C)(C)NC(=O)[C@H](Cc3ccc4ccccc4c3)NC2=O)cc1
B10: peptide compound SEQ ID NO: 25 (peptide)
peptide: Ac-[dK]NT[Trp(1-Me)]QR[Tyr(Me)][2Nal][dAla(4-thiazolyl)]DNN-NH2
modifications: lactam 1-10
SMILES: COc1ccc(C[C@@H]2NC(=O)[C@H](CCCNC(=N)N)NC(=O)[C@H](CCC(N)=O)NC(=O)[C@H](Cc3cn(C)c4ccccc34)NC(=O)[C@H]([C@@H](C)O)NC(=O)[C@H](CC(N)=O)NC(=O)[C@H](NC(C)=O)CCCCNC(=O)C[C@@H](C(=O)N[C@@H](CC(N)=O)C(=O)N[C@@H](CC(N)=O)C(N)=O)NC(=O)[C@@H](Cc3cscn3)NC(=O)[C@H](Cc3ccc4ccccc4c3)NC2=O)cc1
B11: peptide compound SEQ ID NO: 21 (peptide)
peptide: Ac-[dK]NTWQ[Aib][Tyr(Me)][1Nal][Aib]DNN-NH2
modifications: lactam 1-10
SMILES: COc1ccc(C[C@@H]2NC(=O)C(C)(C)NC(=O)[C@H](CCC(N)=O)NC(=O)[C@H](Cc3c[nH]c4ccccc34)NC(=O)[C@H]([C@@H](C)O)NC(=O)[C@H](CC(N)=O)NC(=O)[C@H](NC(C)=O)CCCCNC(=O)C[C@@H](C(=O)N[C@@H](CC(N)=O)C(=O)N[C@@H](CC(N)=O)C(N)=O)NC(=O)C(C)(C)NC(=O)[C@H](Cc3cccc4ccccc34)NC2=O)cc1

Legend:
human IL-23R = target: T1, human IL-23R (Homo sapiens, UniProt Q5VWK5); test: Human ELISA IL-23/IL-23R binding inhibition; details: human IL-23 coated, recombinant human IL-23R-Fc chimera
T1 sequence (Q5VWK5 24-355 limits assumed): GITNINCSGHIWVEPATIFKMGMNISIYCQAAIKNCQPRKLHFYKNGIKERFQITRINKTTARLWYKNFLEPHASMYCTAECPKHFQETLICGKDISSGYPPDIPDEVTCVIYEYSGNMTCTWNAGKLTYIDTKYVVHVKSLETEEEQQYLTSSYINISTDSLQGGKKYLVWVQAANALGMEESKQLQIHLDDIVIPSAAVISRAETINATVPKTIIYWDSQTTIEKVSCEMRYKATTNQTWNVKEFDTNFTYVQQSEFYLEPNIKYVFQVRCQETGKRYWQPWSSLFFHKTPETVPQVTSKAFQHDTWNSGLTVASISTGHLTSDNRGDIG
Procedure: Antagonism of peptide compounds for human interleukin-23 receptor inhibitors, was determined by an ELISA assay.
A 384-well plate was coated with 50 μl/well of human IL-23 at a final concentration of 1 μg/ml and incubated overnight at 4° C. The wells were washed 3 times with 80 μl wash buffer and blocked with 80 μl blocking buffer for 60 minutes at room temperature and washed again. 20 μl of serially diluted test peptides was added to each well and subsequently 20 μl of recombinant human IL-23R-Fc chimera at final concentration of 0.1 μg/ml. The plate was incubated for 60 minutes at room temperature. After the wells were washed, bound IL-23R-Fc was detected with goat anti-hu-lgG1-HRP antibody. Signals were visualized with QuantaBlu Fluorogenic Peroxidase Substrate.

[1] = target: T2, IL-23 receptor on the surface of HEK-Blue IL-23 cells (UniProt Q5VWK5 24-629, limits assumed); test: cell-based or functional assay
T2 sequence (looked up): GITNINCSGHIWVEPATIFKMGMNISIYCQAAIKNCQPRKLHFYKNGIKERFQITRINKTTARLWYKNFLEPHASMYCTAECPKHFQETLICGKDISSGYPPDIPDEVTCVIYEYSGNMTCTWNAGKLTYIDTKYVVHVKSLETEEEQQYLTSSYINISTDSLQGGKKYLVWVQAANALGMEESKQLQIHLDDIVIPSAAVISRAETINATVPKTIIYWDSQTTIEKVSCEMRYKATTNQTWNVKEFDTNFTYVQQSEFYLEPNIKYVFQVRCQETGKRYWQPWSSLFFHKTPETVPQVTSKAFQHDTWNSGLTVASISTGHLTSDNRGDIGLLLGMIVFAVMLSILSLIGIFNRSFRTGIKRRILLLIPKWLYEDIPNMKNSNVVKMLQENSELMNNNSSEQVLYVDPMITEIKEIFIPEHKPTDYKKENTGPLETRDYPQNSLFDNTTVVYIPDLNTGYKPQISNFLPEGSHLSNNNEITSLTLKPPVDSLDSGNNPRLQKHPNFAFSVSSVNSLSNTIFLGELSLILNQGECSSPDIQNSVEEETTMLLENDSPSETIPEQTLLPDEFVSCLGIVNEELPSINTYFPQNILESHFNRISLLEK

Molecule | IC50 (human IL-23R) [nM] | Inhibition of IL-23 induced pSTAT3 (IC50 nM) [1] [nM]
COc1ccc(C[C@@H]2NC(=O)[C@H](C)NC(=O)[C@H](CCC(N)=O)NC(=O)[C@H](Cc3c[nH]c4ccccc34)NC(=O)[C@H]([C@@H](C)O)NC(=O)[C@H](CC(N)=O)NC(=O)[C@H](NC(C)=O)CCCCNC(=O)C[C@@H](C(=O)N[C@@H](C)C(=O)N[C@@H](C)C(N)=O)NC(=O)C(C)(C)NC(=O)[C@H](Cc3ccc4ccccc4c3)NC2=O)cc1 [compound 50] (Ac-[dK]NTWQAY(Me)[2Nal][Aib]DAA-NH2; lactam 1-10) | 8.29 | –
B1 | – | 6590
B2 | – | 1440
B3 | – | 385
B4 | – | 10000
B5 | – | 1960
B6 | – | 334
B7 | – | 234
B8 | – | 426
B9 | – | 1150
B10 | – | 3830
B11 | – | 7500
